# Measurements published in paper PMC3669275.
# Experiments:
# [1] = molecular target: 3NC, recombinant protein with a triplicate N36-GGSGG-C34 (HIV-1); experiment: SPR; BIACORE X; 3NC (100 µg/ml) amine-coupled to a CM5 chip; C60 or POB1 (333–461) injected at 20 µl/min; 10 mM HEPES pH 7.4, 0.15 M NaCl, 3.4 mM EDTA, 0.005% P20
# [2] = molecular target: HIV-1 HXB2 Env (gp160; gp41) expressed on CHO-Env cells (HIV-1 HXB2) (UniProt P04578)
# [3] = molecular target: HIV-1 HXB2 Env (gp160; gp41) expressed on CHO-Env cells (HIV-1 HXB2) (UniProt P04578); remark: listed apart in the source
substance,measurement,setting,value
"C60, recombinant POB1 (462–521) (domain or fragment)",Kd,[1],0.0155 µM
same,"IC50 of inhibition of HIV-1 Env-mediated cell-cell fusion (syncytium formation, CHO-Env with 3T3.T4.CXCR4 cells)",[2],1.09 µM
same,"IC50 of inhibition of infection of MT-2 cells by HIV-1 IIIB (X4-tropic), p24 ELISA",[3],15.3 µM
same,"IC50 of inhibition of infection of TZM-bl cells by HIV-1 Bal (R5-tropic; the Env is that of strain Bal), luciferase",[3],9.21 µM
